In patent publication US7534862:

What was measured:
[1] = molecular target: IL-6/sIL-6R complex (100 ng/ml IL-6 + 50 ng/ml sIL-6R) (UniProt P05231); assay: cell-based or functional assay
[2] = molecular target: hyper-IL-6 (H-IL-6), a fusion protein comprising IL-6+sIL-6R (UniProt P08887); assay: cell-based or functional assay
hyper-IL-6 (H-IL-6), a fusion protein comprising IL-6+sIL-6R, sequence (P08887 20-323 limits assumed, chain 1 of 2): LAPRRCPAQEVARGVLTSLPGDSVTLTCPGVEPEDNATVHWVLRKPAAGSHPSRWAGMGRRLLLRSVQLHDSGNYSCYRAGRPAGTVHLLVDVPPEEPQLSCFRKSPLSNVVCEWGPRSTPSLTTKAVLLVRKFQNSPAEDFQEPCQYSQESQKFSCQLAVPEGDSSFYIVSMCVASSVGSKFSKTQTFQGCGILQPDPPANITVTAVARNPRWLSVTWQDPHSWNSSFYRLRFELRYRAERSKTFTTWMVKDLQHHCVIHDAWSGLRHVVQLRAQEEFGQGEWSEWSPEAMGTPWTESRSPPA
hyper-IL-6 (H-IL-6), a fusion protein comprising IL-6+sIL-6R, sequence (P05231 30-212 limits assumed, chain 2 of 2, further chain): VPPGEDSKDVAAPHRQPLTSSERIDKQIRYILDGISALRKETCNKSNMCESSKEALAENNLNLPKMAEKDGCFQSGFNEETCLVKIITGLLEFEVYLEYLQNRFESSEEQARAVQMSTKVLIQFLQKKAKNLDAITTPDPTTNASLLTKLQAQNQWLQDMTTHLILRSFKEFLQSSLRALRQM

IL-6/sIL-6R complex (100 ng/ml IL-6 + 50 ng/ml sIL-6R), sequence (P05231 30-212 limits assumed, chain 1 of 2): as the sequence (P05231 30-212 limits assumed, chain 2 of 2, further chain) above
IL-6/sIL-6R complex (100 ng/ml IL-6 + 50 ng/ml sIL-6R), sequence (P08887 20-358 limits assumed, chain 2 of 2, further chain): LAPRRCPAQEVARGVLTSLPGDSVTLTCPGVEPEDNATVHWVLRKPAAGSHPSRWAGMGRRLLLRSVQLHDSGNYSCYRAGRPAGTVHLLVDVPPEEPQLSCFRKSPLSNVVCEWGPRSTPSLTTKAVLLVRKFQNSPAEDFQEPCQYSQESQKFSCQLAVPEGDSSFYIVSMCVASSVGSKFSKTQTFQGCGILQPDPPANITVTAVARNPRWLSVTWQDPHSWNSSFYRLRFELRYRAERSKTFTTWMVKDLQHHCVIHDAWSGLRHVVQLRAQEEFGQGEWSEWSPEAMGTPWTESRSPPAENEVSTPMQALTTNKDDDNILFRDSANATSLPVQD

B1: sgp130PEG (PEGylated sgp130(D1-D3)-Pn dimer) (receptor, part only)
chain: MLTLQTWVVQALFIFLTTESTGELLDPCGYISPESPVVQLHSNFTAVCVLKEKCMDYFHVNANYIVWKTNHFTIPKEQYTIINRTASSVTFTDIASLNIQLTCNILTFGQLEQNVYGITIISGLPPEKPKNLSCIVNEGKKMRCEWDGGRETHLETNFTLKSEWATHKFADCKAKRDTPTSCTVDYSTVYFVNIEVWVEAENALGKVTSDHINFDPVYKVKPNPPHNLSVINSEELSSILKLTWTNPSIKSVIILKYNIQYRTKDASTWSQIPPEDTASTRSSFTVQDLKPFTEYVFRIRCMKEDGKGYWSDWSEEASGITYEDRP
modifications: C-terminal Pn cysteine peptide unsequenced; PEGylated; disulfide dimer
Question: B1 was tested. Which factor of improvement over sgp130Fc in inhibition of BAF/gp130 proliferation (fold vs sgp130Fc) [1] did it give?
Answer: Its factor of improvement over sgp130Fc in inhibition of BAF/gp130 proliferation (fold vs sgp130Fc) is 1.5 to 3.

Question: What about the half-maximal [3H]-thymidine incorporation of BAF/gp130 cells (proliferation) [1] of the same binder?
Answer: Its half-maximal [3H]-thymidine incorporation of BAF/gp130 cells (proliferation) is 1 to 5 ng/mL.

Question: What about the STAT3 activity (relative luciferase activity, pSTAT3-TA-Luc reporter in BAF/gp130 cells) at 10 ug/ml inhibitor, 5 ng/ml H-IL-6 (% of activity with H-IL-6 alone) [2] of the same binder?
Answer: Its STAT3 activity (relative luciferase activity, pSTAT3-TA-Luc reporter in BAF/gp130 cells) at 10 ug/ml inhibitor, 5 ng/ml H-IL-6 (% of activity with H-IL-6 alone) is 18.

Question: And the concentration giving half-maximal activation of STAT3 (H-IL-6-induced, luciferase reporter in BAF/gp130 cells) [2]?
Answer: Its concentration giving half-maximal activation of STAT3 (H-IL-6-induced, luciferase reporter in BAF/gp130 cells) is 2.5 µg/mL.

Question: What about the efficiency relative to sgp130Fc in inhibition of H-IL-6-induced STAT3 activation (fold vs sgp130Fc) [2] of the same binder?
Answer: Its efficiency relative to sgp130Fc in inhibition of H-IL-6-induced STAT3 activation (fold vs sgp130Fc) is 2 to 3.

Question: What about the factor of improvement over sgp130Fc in inhibition of BAF/gp130 proliferation (fold vs sgp130Fc) [2] of the same binder?
Answer: Its factor of improvement over sgp130Fc in inhibition of BAF/gp130 proliferation (fold vs sgp130Fc) is 1.5 to 3.

Question: What about the half-maximal [3H]-thymidine incorporation of BAF/gp130 cells (proliferation) [2] of the same binder?
Answer: The half-maximal [3H]-thymidine incorporation of BAF/gp130 cells (proliferation) was 1 to 5 ng/mL.
